Biological target: Factor X (FX) (Homo sapiens (Human)) (UniProt P00742)
Sequence (P00742 41-488 limits assumed): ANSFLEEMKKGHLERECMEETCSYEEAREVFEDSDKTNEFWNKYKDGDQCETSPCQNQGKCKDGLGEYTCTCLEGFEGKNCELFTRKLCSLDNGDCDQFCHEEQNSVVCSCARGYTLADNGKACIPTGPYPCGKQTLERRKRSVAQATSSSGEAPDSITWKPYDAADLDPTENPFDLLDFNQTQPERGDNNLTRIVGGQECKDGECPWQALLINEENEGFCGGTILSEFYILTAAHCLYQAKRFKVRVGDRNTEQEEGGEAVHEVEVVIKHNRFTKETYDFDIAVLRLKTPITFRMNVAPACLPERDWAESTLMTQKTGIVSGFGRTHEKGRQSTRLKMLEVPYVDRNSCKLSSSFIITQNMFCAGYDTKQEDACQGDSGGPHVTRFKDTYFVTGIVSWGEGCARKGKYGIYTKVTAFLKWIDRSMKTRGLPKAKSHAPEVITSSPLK

| Binder | kcat/KM, TF-Dependent Indirect Assay |
| --- | --- |
| FVIIa variant P321E (enzyme) ANAFLEELRPGSLERECKEEQCSFEEAREIFKDAERTKLFWISYSDGDQCASSPCQNGGSCKDQLQSYICFCLPAFEGRNCETHKDDQLICVNENGGCEQYCSDHTGTKRSCRCHEGYSLLADGVSCTPTVEYPCGKIPILEKRNASKPQGRIVGGKVCPKGECPWQVLLLVNGAQLCGGTLINTIWVVSAAHCFDKIKNWRNLIAVLGEHDLSEHDGDEQSRRVAQVIIPSTYVPGTTNHDIALLRLHQPVVLTDHVVPLCLPERTFSERTLAFVRFSLVSGWGQLLDRGATALELMVLNVPRLMTQDCLQQSRKVGDSENITEYMFCAGYSDGSKDSCKGDSGGPHATHYRGTWYLTGIVSWGQGCATVGHFGVYTRVSQYIEWLQKLMRSEPRPGVLLRAPFP | 5.59e+07 M⁻¹ s⁻¹ |
| FVIIa variant P321Y (enzyme) ANAFLEELRPGSLERECKEEQCSFEEAREIFKDAERTKLFWISYSDGDQCASSPCQNGGSCKDQLQSYICFCLPAFEGRNCETHKDDQLICVNENGGCEQYCSDHTGTKRSCRCHEGYSLLADGVSCTPTVEYPCGKIPILEKRNASKPQGRIVGGKVCPKGECPWQVLLLVNGAQLCGGTLINTIWVVSAAHCFDKIKNWRNLIAVLGEHDLSEHDGDEQSRRVAQVIIPSTYVPGTTNHDIALLRLHQPVVLTDHVVPLCLPERTFSERTLAFVRFSLVSGWGQLLDRGATALELMVLNVPRLMTQDCLQQSRKVGDSYNITEYMFCAGYSDGSKDSCKGDSGGPHATHYRGTWYLTGIVSWGQGCATVGHFGVYTRVSQYIEWLQKLMRSEPRPGVLLRAPFP | 4.48e+07 M⁻¹ s⁻¹ |
| FVIIa variant P321S (enzyme) ANAFLEELRPGSLERECKEEQCSFEEAREIFKDAERTKLFWISYSDGDQCASSPCQNGGSCKDQLQSYICFCLPAFEGRNCETHKDDQLICVNENGGCEQYCSDHTGTKRSCRCHEGYSLLADGVSCTPTVEYPCGKIPILEKRNASKPQGRIVGGKVCPKGECPWQVLLLVNGAQLCGGTLINTIWVVSAAHCFDKIKNWRNLIAVLGEHDLSEHDGDEQSRRVAQVIIPSTYVPGTTNHDIALLRLHQPVVLTDHVVPLCLPERTFSERTLAFVRFSLVSGWGQLLDRGATALELMVLNVPRLMTQDCLQQSRKVGDSSNITEYMFCAGYSDGSKDSCKGDSGGPHATHYRGTWYLTGIVSWGQGCATVGHFGVYTRVSQYIEWLQKLMRSEPRPGVLLRAPFP | 5.53e+07 M⁻¹ s⁻¹ |

Now from value to binder:

| kcat/KM, TF-Dependent Indirect Assay | Binder |
| --- | --- |
| 5.75e+07 M⁻¹ s⁻¹ | FVIIa variant S119N/L121S (enzyme) ANAFLEELRPGSLERECKEEQCSFEEAREIFKDAERTKLFWISYSDGDQCASSPCQNGGSCKDQLQSYICFCLPAFEGRNCETHKDDQLICVNENGGCEQYCSDHTGTKRSCRCHEGYNLSADGVSCTPTVEYPCGKIPILEKRNASKPQGRIVGGKVCPKGECPWQVLLLVNGAQLCGGTLINTIWVVSAAHCFDKIKNWRNLIAVLGEHDLSEHDGDEQSRRVAQVIIPSTYVPGTTNHDIALLRLHQPVVLTDHVVPLCLPERTFSERTLAFVRFSLVSGWGQLLDRGATALELMVLNVPRLMTQDCLQQSRKVGDSPNITEYMFCAGYSDGSKDSCKGDSGGPHATHYRGTWYLTGIVSWGQGCATVGHFGVYTRVSQYIEWLQKLMRSEPRPGVLLRAPFP |
| 3.43e+07 M⁻¹ s⁻¹ | FVIIa variant P321K (enzyme) ANAFLEELRPGSLERECKEEQCSFEEAREIFKDAERTKLFWISYSDGDQCASSPCQNGGSCKDQLQSYICFCLPAFEGRNCETHKDDQLICVNENGGCEQYCSDHTGTKRSCRCHEGYSLLADGVSCTPTVEYPCGKIPILEKRNASKPQGRIVGGKVCPKGECPWQVLLLVNGAQLCGGTLINTIWVVSAAHCFDKIKNWRNLIAVLGEHDLSEHDGDEQSRRVAQVIIPSTYVPGTTNHDIALLRLHQPVVLTDHVVPLCLPERTFSERTLAFVRFSLVSGWGQLLDRGATALELMVLNVPRLMTQDCLQQSRKVGDSKNITEYMFCAGYSDGSKDSCKGDSGGPHATHYRGTWYLTGIVSWGQGCATVGHFGVYTRVSQYIEWLQKLMRSEPRPGVLLRAPFP |
